What all share (experiment): SPR, R17 on CM5 chip; KD,eq from saturation binding, Scatchard analysis
In one assay the target is T1, murine CCL2 (mouse, UniProt P10148 24-148).
T1 construct: also called mCCL2

A further assay concerns the target T2, murine CCL3 (mouse, UniProt P10855 24-92).
T2 construct: also called mCCL3
T2 sequence: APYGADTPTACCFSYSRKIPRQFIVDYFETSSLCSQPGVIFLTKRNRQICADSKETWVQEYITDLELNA

The target in a further assay is T3, murine CCL4 (mouse, UniProt P14097 24-92).
T3 construct: also called mCCL4
T3 sequence: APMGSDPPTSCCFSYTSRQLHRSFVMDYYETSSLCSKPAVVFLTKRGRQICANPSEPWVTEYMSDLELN

For a further assay, the target named is T4, murine CCL5 (mouse, UniProt P30882 24-91).
T4 construct: also called mCCL5
T4 sequence (P30882 24-91 limits assumed): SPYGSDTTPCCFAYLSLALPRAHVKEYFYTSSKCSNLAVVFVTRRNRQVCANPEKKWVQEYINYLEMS

Another assay concerns the target T5, murine CCL8 (mouse, UniProt Q9Z121 24-97).
T5 construct: also called mCCL8
T5 sequence: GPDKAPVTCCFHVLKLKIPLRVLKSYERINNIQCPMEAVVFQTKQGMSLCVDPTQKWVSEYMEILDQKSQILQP

The target in the next assay is T6, murine CCL20 (mouse, UniProt O89093 28-97).
T6 construct: also called mCCL20
T6 sequence: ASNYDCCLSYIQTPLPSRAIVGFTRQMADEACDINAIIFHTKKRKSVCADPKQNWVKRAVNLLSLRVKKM

The next assay deals with T7, murine CCL24 (mouse, UniProt Q9JKC0 27-119).
T7 construct: also called mCCL24
T7 sequence: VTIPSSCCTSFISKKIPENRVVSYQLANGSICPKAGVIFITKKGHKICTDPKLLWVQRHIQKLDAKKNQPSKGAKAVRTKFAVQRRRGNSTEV

A further assay concerns the target T8, murine CCL12 (mouse, UniProt Q62401 23-104).
T8 construct: also called mCCL12
T8 sequence: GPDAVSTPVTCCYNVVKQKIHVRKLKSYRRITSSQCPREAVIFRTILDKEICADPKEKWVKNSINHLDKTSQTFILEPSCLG

For assay [1], the target named is T9, murine XCL1 (lymphotactin) (mouse, UniProt P47993 22-114).
T9 construct: also called mXCL1; lymphotactin (XCL1)
T9 sequence: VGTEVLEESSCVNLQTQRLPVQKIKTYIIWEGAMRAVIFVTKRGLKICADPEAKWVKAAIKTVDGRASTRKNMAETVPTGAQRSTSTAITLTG

T1 sequence (P10148 24-148 limits assumed): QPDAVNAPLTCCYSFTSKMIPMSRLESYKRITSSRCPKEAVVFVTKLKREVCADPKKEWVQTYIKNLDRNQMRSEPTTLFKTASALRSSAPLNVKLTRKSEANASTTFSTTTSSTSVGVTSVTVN

B1: R17 chemokine decoy receptor of Rodent herpesvirus Peru (RHVP), wild type, C-terminal 8-His fusion (receptor)
chain: GPVGEPVASEINEASKVSSRLLTQDILFRKDRQATISLPIKLPVEDIITQTCDKITYGPLKFLDLLEKETAVLPLSTDITCPACLGRAVLVGKWECPAHVAVNESDLTVFGPNKEEHVPQFVTVQQPSDGKMQRLFFAKFLGTEESLAVLRVPGPDGHLCIQEALIHFKELSGAGVCSLWKANDSREEGLEMKQVDCLETTVLENQTCIATTLSKKIYHRLYCGERLMTGGQVSTRVLLTALGFYKRQPYTFHRVPKGMVYVHLIDSGSEDYMEYSECEEVTPGRYEDKQISYTFYTDLFQTADGEPVLASVWGTSGLKDSAYESCAFVIPTKGRRKLVPRRIMSKCYPFRLTYHPSTMTVRLDVRVEKHHGATDQGFVFLKMESGTYSEGREYYLDRVLWGEDSSTNNVLQ
notes: not shown: C-terminal 8-His tag
For the molecule B1, the Kd in the assay with murine CCL2 stood at 10 nM; in the assay with murine CCL3, 0.4 nM; with murine CCL4, 0.8 nM; with murine CCL5, 0.1 nM; with murine CCL8, 80 nM; with murine CCL20, 3.4 nM. The Kd in the assay with murine CCL24 came out at 2.2 nM; with murine CCL12, 1.3 nM; in [1] it was 4.2 nM.

Values taken from patent publication US20200164032A1 (WASHINGTON UNIVERSITY, published 2020).
